Experiments:
FcγRIIIa-F158 = FcγRIIIa-F158 (UniProt P08637); test: SPR (Biacore T100), antibody captured on protein A chip, receptor injected as analyte, 1:1 steady-state fit
FcγRIIb = FcγRIIb (UniProt P31994); test: SPR (Biacore T100), antibody captured on protein A chip, receptor injected as analyte
Sequence of FcγRIIb (P31994 46-217 limits assumed): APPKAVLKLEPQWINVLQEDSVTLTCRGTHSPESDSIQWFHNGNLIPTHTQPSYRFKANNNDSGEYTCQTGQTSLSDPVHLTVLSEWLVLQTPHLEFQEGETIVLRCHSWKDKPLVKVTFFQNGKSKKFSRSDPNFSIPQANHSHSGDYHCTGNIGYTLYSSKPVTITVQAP

Sequence of FcγRIIIa-F158 (P08637 17-208 limits assumed): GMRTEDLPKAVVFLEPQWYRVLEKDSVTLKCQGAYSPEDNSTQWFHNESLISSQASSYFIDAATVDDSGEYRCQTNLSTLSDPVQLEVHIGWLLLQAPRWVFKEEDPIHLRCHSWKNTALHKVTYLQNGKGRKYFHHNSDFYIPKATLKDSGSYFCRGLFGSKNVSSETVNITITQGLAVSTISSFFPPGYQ

Substance: nonfucosylated G2 glycoform of rituximab (10) (antibody)
- Kd (FcγRIIIa-F158): 123 nM
- Kd (FcγRIIb): 2300 nM

Source: patent US20150087814A1
